{
  "source": "patent US20260055201A1",
  "about": "(SHENGHE CHINA BIOPHARMACEUTICAL, published 2026)",
  "key": {"[1]": {"target": "T1, Human TNFR2 mFc (manufacturer: Kaixia, CAT: TN-HM3R2) (human, UniProt P20333 23-257)", "T1 construct": "treated as one molecule; also called Human TNFR2 mFC (KaKa, CAT: TNF-HM3R2); human TNFR2 mFC protein; not shown: mFc part", "T1 sequence (looked up)": "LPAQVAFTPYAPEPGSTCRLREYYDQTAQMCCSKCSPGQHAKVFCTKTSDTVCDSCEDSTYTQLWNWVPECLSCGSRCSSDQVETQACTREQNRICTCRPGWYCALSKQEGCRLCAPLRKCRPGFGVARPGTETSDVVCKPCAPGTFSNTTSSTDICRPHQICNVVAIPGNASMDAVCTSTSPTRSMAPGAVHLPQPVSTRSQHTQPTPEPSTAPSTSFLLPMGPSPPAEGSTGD", "experiment": "bridging ELISA: human TNFR2 mFc coated, antibody titrated, then human 4-1BB His 0.3 ug/mL, HRP anti-His detection, OD450", "description": "(§1) The coating solution was poured off. Each well was washed with 1×PBST at 300 μL, washed 4 times with a plate washer, and patted dry on a flat paper. It was blocked with 3% skim milk powder at 300 μL/well, and incubated at 37° C. for 1 h. The blocking solution was poured off, washed 4 times with a plate washer, and patted dry on a flat paper. […] Starting at 50 nM, which was used as the initial concentration for 3-fold dilution, a total of 10 gradients were diluted, and a blank well was set up and only the diluent was added. It was incubated at 37° C. for 1 h at 100 μL/well. The liquid in the well was discarded, washed 4 times with a plate washer, and patted dry on a flat paper. Human 4-1BB His (manufacturer: Acro, CAT: 41B-H5258, LOT: 198-2146F1-W6) was diluted to 0.3 μg/mL, 100 μL was added to each well, and incubated at room temperature for 1 h. […] It was washed 6 times with a plate washer, and patted dry on a flat paper. TMB color developing solution was added at 100 μL/well, and wrapped with aluminum foil. Color development was performed at 37° C. in the dark for 8 min. Termination solution 1M HCl was added to terminate the color development reaction at 100 μL/well. Readings were taken at 450 nm on an ELISA reader."}, "[2]": {"target": "T2, Human 4-1BB His (manufacturer: Acro, CAT: 41B-H5258) (human, UniProt Q07011 24-186)", "T2 construct": "Bought protein; also called human 4-1BB protein; 4-1BB protein; not shown: His tag", "T2 sequence (Q07011 24-186 limits assumed)": "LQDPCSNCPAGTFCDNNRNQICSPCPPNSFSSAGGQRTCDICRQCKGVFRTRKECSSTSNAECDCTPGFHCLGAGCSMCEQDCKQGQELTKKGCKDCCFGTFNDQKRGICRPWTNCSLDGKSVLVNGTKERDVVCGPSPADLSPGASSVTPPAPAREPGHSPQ", "experiment": "ELISA, human 4-1BB His coated at 0.2 ug/mL, anti-human IgG detection, OD450", "description": "The coating solution was poured off. Each well was washed with 1×PBST at 300 μL, washed 4 times with a plate washer, and patted dry on a flat paper. It was blocked with 3% skim milk powder at 300 μL/well, and incubated at 37° C. for 1 h. The blocking solution was poured off, washed 4 times with a plate washer, and patted dry on a flat paper. Negative control and positive control were set up. […] The positive control and antibody were diluted to 10 μg/mL with 3% skim milk powder as the starting concentration, and then diluted by 3-fold gradient (11 gradients in total), and a blank well was set up and only the diluent was added. It was incubated at 37° C. for 1 h at 100 μL/well. The liquid in the well was discarded, washed 4 times with a plate washer, and patted dry on a flat paper. […] It was washed 6 times with a plate washer, and patted dry on a flat paper. TMB color developing solution was added at 100 μL/well, and wrapped with aluminum foil. Color development was performed at 37° C. in the dark for 8 min. Termination solution 1M HCl was added to terminate the color development reaction at 100 μL/well. Readings were taken at 450 nm on an ELISA reader."}, "[3]": {"target": "T3, Human 4-1BB Fc (manufacturer: Acro, CAT: 41B-H5258) (human, UniProt Q07011 24-186)", "T3 construct": "not shown: Fc part", "T3 sequence (Q07011 24-186 limits assumed)": "as above", "experiment": "bridging ELISA: human 4-1BB Fc coated, antibody titrated, then human TNFR2 His 0.3 ug/mL, HRP anti-His detection, OD450", "description": "as §1, with “paper.” for “paper. Human 4-1BB His (manufacturer: Acro, CAT: 41B-H5258, LOT: 198-2146F1-W6) was diluted to 0.3 μg/mL, 100 μL was added to each well, and incubated at room temperature for 1 h.”"}, "[4]": {"target": "T1, Human TNFR2 mFc (manufacturer: Kaixia, …)", "experiment": "blocking ELISA: human TNFR2 mFc coated, antibody titrated together with human TNF alpha His (blocked ligand), anti-His detection, OD450", "description": "(§2) The coating solution was poured off. Each well was washed with 1×PBST at 300 μL, washed 4 times with a plate washer, and patted dry on a flat paper. It was blocked with 3% skim milk powder at 300 μL/well, and incubated at 37° C. for 1 h. The blocking solution was poured off, washed 4 times with a plate washer, and patted dry on a flat paper. Negative control and positive control were set up. […] The positive control and antibody were diluted diluted to 100 nM with 3% skim milk powder as the starting concentration, and then diluted by 3-fold gradient (11 gradients in total), and a blank well was set up and only the diluent was added. […] The liquid in the well was discarded, washed 4 times with a plate washer, and patted dry on a flat paper. The anti his antibody (Abcam, Cat: ab1187) was diluted with 3% skim milk powder at 1:5000, 100 μL was added to each well, and incubated at 37° C. for 1 h. It was washed 6 times with a plate washer, and patted dry on a flat paper. TMB color developing solution was added at 100 μL/well, and wrapped with aluminum foil. Color development was performed at 37° C. in the dark for 8 min. Termination solution 1M HCl was added to terminate the color development reaction at 100 μL/well. Readings were taken at 450 nm on an ELISA reader."}, "[5]": {"target": "T1, Human TNFR2 mFc (manufacturer: Kaixia, …)", "experiment": "blocking ELISA: human TNFR2 mFc coated, antibody titrated together with human TNF alpha His (blocked ligand), anti-His detection, OD450", "description": "as §2", "remark": "listed apart in the source"}},
  "note": "Where two headings read alike, the source gives them in different places.",
  "data": [
    {"binder": "TB-C1 (bispecific antibody, human IgG1, kappa, also called antibody TB-C1) light: DIQMTQSPSSLSASLGDRVTISCSASQGISNYLNWYQQKPDGTVKLLIYYTSTLHSGVPSRFSGSGSGTDYTLTISSLQPEDIATYYCQQYSKLPWTFGGGTKLEIKRTVAAPSVFIFPPSDEQLKSGTASVVCLLNNFYPREAKVQWKVDNALQSGNSQESVTEQDSKDSTYSLSSTLTLSKADYEKHKVYACEVTHQGLSSPVTKSFNRGEC heavy: not shown", "values": [
      {"measurement": "EC50 (read off the curve)", "setting": "[1]", "value": "~0.06", "unit": "nM"},
      {"measurement": "EC50 (read off the curve)", "setting": "[2]", "value": "~0.1", "unit": "nM"}
    ]},
    {"binder": "TB-A (bispecific antibody, human IgG1, kappa, also called antibody TB-A) light: DIQMTQSPSSLSASLGDRVTISCSASQGISNYLNWYQQKPDGTVKLLIYYTSTLHSGVPSRFSGSGSGTDYTLTISSLQPEDIATYYCQQYSKLPWTFGGGTKLEIKRTVAAPSVFIFPPSDEQLKSGTASVVCLLNNFYPREAKVQWKVDNALQSGNSQESVTEQDSKDSTYSLSSTLTLSKADYEKHKVYACEVTHQGLSSPVTKSFNRGEC heavy: not shown", "values": [
      {"measurement": "EC50 (read off the curve)", "setting": "[3]", "value": "~0.6", "unit": "nM"}
    ]},
    {"binder": "Positive control (anti-TNFR2; antibody sequence variable region consists of SEQ ID NO: 25) (VHH, not shown: a dimerising Fc or GST, also called positive control 2) VHH: EVQLVESGGGLVQPGGSLRLSCAASGSRLDYYAVAWFRQAPGKEREEVSCITYSGGSTNYAESVKGRFTISRDNSKNTLYLQMNSLRAEDTAVYYCTTEPYGSSCPLSGYDTWGQGTLVTVSS", "values": [
      {"measurement": "IC50 (read off the curve)", "setting": "[4]", "value": "~2", "unit": "nM"},
      {"measurement": "IC50 (read off the curve)", "setting": "[5]", "value": "~2", "unit": "nM"}
    ]}
  ]
}
